Assay results published in patent publication US20200182883A1 (UNIVERSITY OF MARYLAND BALTIMORE, published 2020).

What was measured:
[1] = molecular target: T1, YU2 gp120 core, from which V1, V2, and V3 have been deleted (HIV-1 YU2, UniProt P35961 82-479); assay: ELISA, graded
T1 construct: domain: gp120 core; also called YU2 core; YU2-core

[2] = molecular target: T2, HIV-1 IIIB p24 recombinant protein (HIV-1 IIIB); assay: SPR, mAb immobilized on a Protein A chip, 0-200 nM p24, room temperature
T2 construct: domain: p24
Experimental: Surface Plasmon Resonance (SPR) analysis of anti-p24 mAbs. […] Surface Plasmon Resonance (SPR) analysis of each mAb binding to p24. Sensorgrams were obtained at room temperature for each mAb immobilized on a Protein A chip with 0-200 nM concentrations of p24 passed over the chip.

[3] = molecular target: T1, YU2 gp120 core, from which V1, V2, and …; assay: ELISA, background-subtracted OD, mAb titrated

B1: N60P2.1 (antibody, V domains shown)
VH: RAQLVQSGPEVKKPGASVRISCAASGYTFVDSFIHWLRQAPGQGLEWIGWINPLRGGVNYSGRFQGRVAMTRNTFTETVYMDINGLTPDDTATYFCVRAPDSYDRGYDAWGQGTRVIVTS
VL: YIQVTQSPSTLSASIGDTVTITCRASEGWLAWYQQKPGKAPKLIIYKTSTLERGVPSRFSGSVSGADFTLTISGLQSDDFATYYCQKFEFFGQGTVVDMK
notes: they may be variable regions only
- binding result [1]: no binding

B2: N60P53 (antibody, V domains shown)
VH: QVQLQESGPGLVKPSQTLSLTCTVSGGSINSGGYFWTWIRQEPGKGLEWIGHVHSSGTTSYNPSLKSRLTISLDSSKNQFSLNLTSVTAADTAVYYCASQGRLGIGDYWGQGALVVVSS
VL: DIQMTQSPSSLSASVGDRVTITCRASQGVSHLVNWYQQKPGKAPKPLIYTVSSLHSGVPSRISGSGSETEFTLTISSLQPEDFATYYCQQTYSSPRTFGQGTRVDLK
notes: Anti-p24 mAb; they may be variable regions only; captured on Protein A chip in SPR; also called N6053
- Kd [2]: 39.9 pM
- koff [2]: 3.81e-05 s⁻¹
- kon [2]: 954000 M⁻¹ s⁻¹

B3: N60P23 (antibody, V domains shown)
VH: HVQLVQSGTEVKRPGASVRISCASSGYTFSNYFIHWVRQAPGRGLEWMGWMNPLRGAVNYSGKFQGRVTMTRDIYTETSFMVLSGLRSDDTAIYFCARGRDGYEYGFNPWGQGTLVTVSS
VL: CYVQTQSPSTLYASVGDRVTITCRSSQSGWKAWYQQKPGKAPKLLIYKSSTLESGVPSRFSGSDSGTEFNLTITSLQPDDFATYFCQHFETFGQGTRVEVR
notes: they may be variable regions only; Kappa light chain
- binding result [3]: no binding (tested: 0.8 ug/ml)

B4: N60P25.1 (antibody, V domains shown)
VH: QIELVQSGTEVKRPGASVRISCASSGYRFTNYFIHWVRQAPGRGLEWMGWMNPLHGGVNYSGRFQGRVTMTRDIYTETSFMVLSGLTSDDTAIYFCTRGRDGYDDGFHPWGQGTLVTVSA
VL: YVQSQSPSTLYASVGDKITITCRSSQSGWKAWYQQKPGKAPKLLIYKSSILETGVPSRFSGSDSGTEFTLTISSLQPDDFATYYCQHFETFGQGTRVQVR
notes: Kappa light chain; also called N6025.1
- binding result [1]: no binding
